Literature values as cited in PMC8645602.
Where two headings read alike, the source gives them in different places.

Tests used:
[1] = target: Tyr9 (UniProt position 9, KPKLHYFNGRG); details: not stated (the article does not say whether the enzyme was free or glutathione-bound)
[2] = target: Tyr9 (UniProt position 9, KPKLHYFNARG)

Q: For “Glutathione transferase A3-3 (HsaGST A3-3) (Homo sapiens)”, which pKa [1] is on record?
A: 7.9

Q: Which results are given for “Glutathione transferase A1-1 (HsaGST A1-1) (Homo sapiens)”?
A: pKa ([2]; free enzyme (no glutathione)): 8.1; pKa ([2]; glutathione bound): 9.2
